Measured values published in US20130012436A1 (Bristol-Myers Squibb, published 2013).

T1: human IL-23 (human, UniProt Q9NPF7 20-189; P29460 23-328)
T1 construct: also called hIL-23; human recombinant IL-23
T1 sequence (looked up) 1: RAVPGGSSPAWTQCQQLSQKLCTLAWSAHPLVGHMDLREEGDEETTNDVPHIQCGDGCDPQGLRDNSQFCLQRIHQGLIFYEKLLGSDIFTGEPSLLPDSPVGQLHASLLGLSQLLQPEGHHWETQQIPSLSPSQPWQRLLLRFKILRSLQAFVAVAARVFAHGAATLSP
T1 sequence (looked up) 2: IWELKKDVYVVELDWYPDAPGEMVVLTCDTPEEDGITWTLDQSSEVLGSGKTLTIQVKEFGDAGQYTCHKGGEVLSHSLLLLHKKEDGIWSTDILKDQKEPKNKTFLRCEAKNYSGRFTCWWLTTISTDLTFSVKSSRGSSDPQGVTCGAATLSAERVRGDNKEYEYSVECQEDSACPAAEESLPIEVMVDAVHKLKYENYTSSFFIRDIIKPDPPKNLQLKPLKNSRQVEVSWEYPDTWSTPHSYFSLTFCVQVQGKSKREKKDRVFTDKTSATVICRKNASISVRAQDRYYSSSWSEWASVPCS

B1: SABA4.1 (designed binder)
chain: MGVSDVPRDLEMVAATPTSLLISWEDDSYYSRYYRITYGETGGNSPVQEFTVPSDLYTATISGLKPGVDYTITVYAVTYDVTDLIMHEPISINYRTEIDKPSQHHHHHH
B2: ATI001014 (designed binder)
chain: MGVSDVPRDLEVVAATPTSLLISWGHYPLHVRYYRITYGETGGNSPVQEFTVPPRSHTATISGLKPGVDYTITVYAVTYYAQENYKEIPISINYRTGSGC
modifications: pegylated at the C-terminal GSGC linker (Cys)
notes: not shown: his-tag
B3: ATI000934 (designed binder)
chain: MGVSDVPRDLEVVAATPTSLLISWGHYPLHLRYYRITYGETGGNSPVQEFTVPRTKYTATISGLKPGVDYTITVYAVTYYKEADYSQIPISINYRTEIDKPCQ
modifications: pegylated at the C-terminal EIDKPCQ (Cys)
notes: also called ATI 934; not shown: his-tag
B4: SABA2.1 (designed binder)
chain: MGVSDVPRDLEVVAATPTSLLISWPKYDKTGHYYRITYGETGGNSPVQEFTVPTRQTTATISGLKPGVDYTITVYAVSKDDYYPHEHRPISINYRTEIDKPSQHHHHHH
B5: SABA3.1 (designed binder)
chain: MGVSDVPRDLEVVAATPTSLLISWSNDGPGLSYYRITYGETGGNSPVQEFTVPSSQTTATISGLKPGVDYTITVYAVSYYTKKAYSAGPISINYRTEIDKPSQHHHHHH
B6: 1490B03 (designed binder)
chain: MGVSDVPRDLEVVAATPTSLLISWGHYPLHVRYYRITYGETGGNSPVQEFTVPSRKYTATISGLKPGVDYTITVYAVTYYKEANYREIPISINYRTEIDKPSQHHHHHH
notes: captured by anti-His mAb
B7: 1571G04 (designed binder)
chain: MGVSDVPRDLEVVAATPTSLLISWGHYPLHVRYYRITYGETGGNSPVQEFTVPPRSHTATISGLKPGVDYTITVYAVTYYAQENYKEIPISINYRTEIDKPSQHHHHHH
notes: captured by anti-His mAb
B8: 1572D04 (designed binder)
chain: MGVSDVPRDLEVVAATPTSLLISWGHYPMHVRYYRITYGETGGNSPVQEFTVPPRRYTATISGLKPGVDYTITVYAVTYYEQPIYATIPISINYRTEIDKPSQHHHHHH
notes: captured by anti-His mAb
B9: 1550H05 (designed binder)
chain: MGVSDVPRDLEVVAATPTSLLISWGHYPLHVRYYRITYGETGGNSPVQEFTVPRQIYTATISGLKPGVDYTITVYAVTYYNEADYSQIPISINYRTEIDKPSQHHHHHH
notes: captured by anti-His mAb
B10: 1571G06 (designed binder)
chain: MGVSDVPRDLEVVAATPTSLLISWGHYPLHLRYYRITYGETGGNSPVQEFTVPRTKYTATISGLKPGVDYTITVYAVTYYKEADYSQIPISINYRTEIDKPSQHHHHHH
notes: captured by anti-His mAb
B11: 1572C09 (designed binder)
chain: MGVSDVPRDLEVVAATPTSLLISWGHYPMHIRYYRITYGETGGNSPVQEFTVPTPKHTATISGLKPGVDYTITVYAVTYYNEADYSQIPISINYRTEIDKPSQHHHHHH
notes: captured by anti-His mAb
B12: 1572F05 (designed binder)
chain: MGVSDVPRDLEVVAATPTSLLISWGHYPLHIRYYRITYGETGGNSPVQEFTVPRQKYTATISGLKPGVDYTITVYAVTYYNEADYSQIPISINYRTEIDKPSQHHHHHH
notes: captured by anti-His mAb
B13: 1572B10 (designed binder)
chain: MGVSDVPRDLEVVAATPTSLLISWGHYPMHVRYYRITYGETGGNSPVQEFTVPVPRHTATISGLKPGVDYTITVYAVTYYNEADYSQIPISINYRTEIDKPSQHHHHHH
notes: captured by anti-His mAb
B14: 1571F10 (designed binder)
chain: MGVSDVPRDLEVVAATPTSLLISWGHYPLHIRYYRITYGETGGNSPVQEFTVPSRYHTATISGLKPGVDYTITVYAVTYYEQVEYREIPISINYRTEIDKPSQHHHHHH
notes: captured by anti-His mAb
B15: 1572G06 (designed binder)
chain: MGVSDVPRDLEVVAATPTSLLISWGHYPLHVRYYRITYGETGGNSPVQEFTVPRYKYTATISGLKPGVDYTITVYAVTYYAQENYKEIPISINYRTEIDKPSQHHHHHH
notes: captured by anti-His mAb
B16: 1490H05 (designed binder)
chain: MGVSDVPRDLEVVAATPTSLLISWGHYPLHVRYYRITYGETGGNSPVQEFTVPMRQHTATISGLKPGVDYTITVYAVTYYAQENYKEIPISINYRTEIDKPSQHHHHHH
notes: captured by anti-His mAb
B17: 1572H05 (designed binder)
chain: MGVSDVPRDLEVVAATPTSLLISWGHYPLHIRYYRITYGETGGNSPVQEFTVPRSKYTATISGLKPGVDYTITVYAVTYYEQVEYREIPISINYRTEIDKPSQHHHHHH
notes: captured by anti-His mAb
B18: 1550 E06 (designed binder)
chain: MGVSDVPRDLEVVAATPTSLLISWGHYPMHVRYYRITYGETGGNSPVQEFTVPPPRHTATISGLKPGVDYTITVYAVTYYAQENYKEIPISINYRTEIDKPSQHHHHHH
notes: captured by anti-His mAb
B19: 1571H03 (designed binder)
chain: MGVSDVPRDLEVVAATPTSLLISWGHYPLHVRYYRITYGETGGNSPVQEFTVPNRVYTATISGLKPGVDYTITVYAVTYYAQEEYHIIPISINYRTEIDKPSQHHHHHH
notes: captured by anti-His mAb

Assays:
[1] = target: T2, murine serum albumin (mouse, UniProt P07724 25-608); experiment: SPR, albumin captured on CM5 chip
T2 construct: also called MuSA; mouse serum albumin
Method: (§1) The kinetics of selected SABA clones purified from HTPP and/or midscaled material were determined by capturing the respective serum albumin (HSA/RhSA/MuSA) on the surface of a Biasensor CM5 chip and flowing a concentration series of SABAs over both the reference flow cell and the captured albumins. In addition, binding to albumin was carried out under various pH conditions ranging from pH 5.5 to pH 7.4. […] SABA1.1 fits biochemical criteria for pH resistance and affinity/kinetics down to pH 5.5.

[2] = target: T3, human serum albumin (human, UniProt P02768 25-609); experiment: SPR (Biacore), albumin captured on CM5 chip, SABA flowed
T3 construct: also called HSA
Method: as §1, with “5.5. […]” for “5.5.”

[3] = target: T4, rhesus serum albumin (rhesus, UniProt Q28522 17-600); experiment: as above
T4 construct: also called RhSA
Method: as §1, with “5.5. […]” for “5.5.”

[4] = target: T1, human IL-23; experiment: SPR (ProteOn XPR), human IL-23 directly immobilized, 25 C
Method: The binding characteristics were characterized by Surface Plasmon Resonance (SPR). Human IL-23 was immobilized at two to four levels in one dimension of a ProteOn XPR (Bio-Rad) chip surfaces and exposed to 6 different concentrations of anti-IL-23 adnectins in the other dimension of the same SPR chip surface. This allowed kinetic determination in the absence of regeneration. Duplicate chips were used for kinetic determinations at 25° C. and 37° C. Evaluation of the kinetic parameters was performed using the Langmuir interaction model and constant parameter fitting with the ProteOn Manager software.
Even at 37° C. the off rates were close to the limit of detection for SPR technologies so it is possible that the reported dissociation constant measurements are under-estimates.

[5] = target: T1, human IL-23; experiment: cell-based or functional assay
[6] = target: T1, human IL-23; experiment: cell-based or functional assay; remark: listed apart in the source
[7] = target: T1, human IL-23; experiment: SPR, Adnectin captured by anti-His mAb, IL-23 injected
Method: All surface plasmon experiments were conducted in HBS-EP (10 mM Hepes 150 mM NaCl 3 mM EDTA 0.05% Surfactant P20) at 25° C. IL-23 was injected over anti-His mAb captured Adnectins for 2 minutes followed by a 10 minute dissociation phase. Evaluation of the binding specificity was completed using Biacore T100 evaluation software. Additional detailed methods are described in Example 4.

T4 sequence (Q28522 17-600 limits assumed): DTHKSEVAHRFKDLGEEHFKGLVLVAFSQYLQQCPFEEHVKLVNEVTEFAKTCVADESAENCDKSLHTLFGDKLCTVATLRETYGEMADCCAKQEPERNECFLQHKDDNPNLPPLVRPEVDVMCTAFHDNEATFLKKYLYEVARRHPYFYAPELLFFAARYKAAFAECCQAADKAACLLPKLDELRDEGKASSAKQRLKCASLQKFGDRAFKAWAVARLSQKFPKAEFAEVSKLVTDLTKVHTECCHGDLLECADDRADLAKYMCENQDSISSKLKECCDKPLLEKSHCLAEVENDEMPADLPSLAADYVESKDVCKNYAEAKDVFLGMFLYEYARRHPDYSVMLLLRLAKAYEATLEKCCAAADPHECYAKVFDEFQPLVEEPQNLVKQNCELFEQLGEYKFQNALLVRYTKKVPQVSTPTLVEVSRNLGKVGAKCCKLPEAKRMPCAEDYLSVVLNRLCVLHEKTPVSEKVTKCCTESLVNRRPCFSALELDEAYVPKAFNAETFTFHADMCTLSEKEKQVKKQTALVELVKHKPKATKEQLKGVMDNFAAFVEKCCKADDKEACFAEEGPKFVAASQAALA
T3 sequence (P02768 25-609 limits assumed): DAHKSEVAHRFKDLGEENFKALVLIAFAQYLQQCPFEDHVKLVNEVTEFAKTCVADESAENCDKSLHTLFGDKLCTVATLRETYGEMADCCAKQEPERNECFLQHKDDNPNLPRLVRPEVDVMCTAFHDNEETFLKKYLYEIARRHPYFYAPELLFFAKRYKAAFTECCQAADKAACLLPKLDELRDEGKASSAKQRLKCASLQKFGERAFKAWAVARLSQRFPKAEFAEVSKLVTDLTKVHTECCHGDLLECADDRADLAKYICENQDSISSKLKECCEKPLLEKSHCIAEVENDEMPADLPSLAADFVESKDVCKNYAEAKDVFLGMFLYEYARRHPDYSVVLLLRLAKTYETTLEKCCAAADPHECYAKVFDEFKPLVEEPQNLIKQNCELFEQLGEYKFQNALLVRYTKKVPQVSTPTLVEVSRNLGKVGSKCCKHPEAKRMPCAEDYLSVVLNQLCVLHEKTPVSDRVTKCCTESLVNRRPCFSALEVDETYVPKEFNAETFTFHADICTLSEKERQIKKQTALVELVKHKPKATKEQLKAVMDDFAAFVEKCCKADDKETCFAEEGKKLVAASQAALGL

Row | Binder | Kit 225 pSTAT3 IC50 (nM) [5] [nM] | IL-17 EC50 [6] [nM] | IL-22 EC50 [6] [nM] | kon [7] [M⁻¹ s⁻¹] | Kd [7] [nM] | koff [7] [s⁻¹] | other results
1 | B1 | – | – | – | – | – | – | binding result [1]: no binding; Kd [2]: 412 nM; koff [2]: 0.000782 s⁻¹; Kd [3]: > 1000 nM; koff [3]: 0.00383 s⁻¹
2 | B2 | – | – | – | – | – | – | Kd [4]: 1.8 nM; koff [4]: 1.7e-05 s⁻¹; kon [4]: 9400 M⁻¹ s⁻¹
3 | B3 | – | – | – | – | – | – | Kd [4]: 1.9 nM; koff [4]: 1.8e-05 s⁻¹; kon [4]: 9400 M⁻¹ s⁻¹
4 | B4 | – | – | – | – | – | – | binding result [1]: no binding; Kd [2]: 33.8 nM; koff [2]: 0.000171 s⁻¹; Kd [3]: 63.6 nM; koff [3]: 0.000442 s⁻¹
5 | B5 | – | – | – | – | – | – | binding result [1]: no binding; Kd [2]: 863 nM; koff [2]: 0.0682 s⁻¹; Kd [3]: 431 nM; koff [3]: 0.0337 s⁻¹
6 | B6 | 0.3 | 1.4 | 1.7 | 153000 | – | – | PBMNC pSTAT3 IC50 (nM) [6]: 0.09 nM
7 | B7 | 0.1 | 1.4 | 1.3 | 170000 | 2.1 | 0.000361 | PBMNC pSTAT3 IC50 (nM) [6]: 0.23 nM; Kd [4]: 0.2 nM; koff [4]: 1.2e-05 s⁻¹; kon [4]: 57000 M⁻¹ s⁻¹
8 | B8 | 4 | – | – | 103000 | 2.9 | 0.000294 | –
9 | B9 | 1.5 | – | – | 65200 | 3.3 | 0.000212 | –
10 | B10 | 0.3 | 3.5 | 5.1 | 131000 | 1.81 | 0.000238 | PBMNC pSTAT3 IC50 (nM) [6]: 0.93 nM
11 | B11 | 0.5 | 7.9 | 5.3 | 60700 | – | – | –
12 | B12 | 3 | – | – | 132000 | 2.2 | 0.000285 | –
13 | B13 | 0.8 | – | – | 65300 | – | – | –
14 | B14 | 0.1 | – | – | 268000 | – | – | –
15 | B15 | 0.05 | 1.6 | 1.9 | 105000 | – | – | PBMNC pSTAT3 IC50 (nM) [6]: 0.21 nM
16 | B16 | 0.4 | 1.8 | 2.9 | 156000 | 2.1 | 0.000322 | –
17 | B17 | 0.01 | – | – | 375000 | 0.61 | 0.00023 | –
18 | B18 | 0.4 | 1.5 | 2.1 | 55400 | 2.1 | 0.000116 | PBMNC pSTAT3 IC50 (nM) [6]: 1.15 nM
19 | B19 | 0.4 | 2.9 | 2.3 | 118000 | 3.4 | 0.000395 | –
